Experimental data taken from article PMC11717359, “A new pipeline SPICE identifies novel JUN-IKZF1 composite elements”.

Columns and labels:
[1] = molecular target: IKZF1 (Ikaros), recombinant;c-JUN, recombinant;c-FOS, recombinant (Homo sapiens;Homo sapiens;Homo sapiens, UniProt Q13422;P05412;P01100 1-519;1-331;1-380, ||); assay: EMSA; 300 ng AP1 + 1 ug IKZF1; stronger than AP1 alone; EMSA per LI-COR kit protocol (829-07910), 100 nM IR700 probe, 4-12% TBE gel in 0.5x TBE; binding buffer, pH and temperature not stated; details: protein: commercial;commercial;commercial; tags: ;;; label: IRDye 700
[2] = molecular target: c-JUN, recombinant;c-FOS, recombinant (Homo sapiens;Homo sapiens, UniProt P05412;P01100 1-331;1-380, |); assay: EMSA; 300 ng AP1; EMSA per LI-COR kit protocol (829-07910), 100 nM IR700 probe, 4-12% TBE gel in 0.5x TBE; binding buffer, pH and temperature not stated; details: protein: commercial;commercial; tags: ;; copies: 1;1; label: IRDye 700
Sequence of c-JUN, recombinant;c-FOS, recombinant (P05412 whole entry, chain 1 of 2): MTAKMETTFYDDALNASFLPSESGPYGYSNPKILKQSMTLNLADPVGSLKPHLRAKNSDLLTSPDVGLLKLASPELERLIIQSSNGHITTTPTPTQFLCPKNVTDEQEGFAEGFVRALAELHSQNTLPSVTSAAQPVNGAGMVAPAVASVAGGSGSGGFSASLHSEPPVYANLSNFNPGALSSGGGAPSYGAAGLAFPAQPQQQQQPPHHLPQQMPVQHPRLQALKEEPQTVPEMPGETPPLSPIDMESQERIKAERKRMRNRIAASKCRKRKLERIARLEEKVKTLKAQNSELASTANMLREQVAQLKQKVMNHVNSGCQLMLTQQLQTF
Sequence of c-JUN, recombinant;c-FOS, recombinant (P01100 whole entry, chain 2 of 2): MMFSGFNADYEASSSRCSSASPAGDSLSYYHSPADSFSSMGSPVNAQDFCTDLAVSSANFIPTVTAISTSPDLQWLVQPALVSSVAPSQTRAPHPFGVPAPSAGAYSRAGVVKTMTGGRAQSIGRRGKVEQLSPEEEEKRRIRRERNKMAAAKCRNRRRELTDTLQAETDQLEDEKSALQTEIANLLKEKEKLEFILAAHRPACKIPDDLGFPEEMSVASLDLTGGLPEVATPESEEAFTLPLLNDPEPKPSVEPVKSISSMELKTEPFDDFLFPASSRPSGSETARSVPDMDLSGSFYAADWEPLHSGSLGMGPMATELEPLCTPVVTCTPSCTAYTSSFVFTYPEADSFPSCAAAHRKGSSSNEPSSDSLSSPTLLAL

Sequence of IKZF1 (Ikaros), recombinant;c-JUN, recombinant;c-FOS, recombinant (Q13422 whole entry, chain 1 of 3): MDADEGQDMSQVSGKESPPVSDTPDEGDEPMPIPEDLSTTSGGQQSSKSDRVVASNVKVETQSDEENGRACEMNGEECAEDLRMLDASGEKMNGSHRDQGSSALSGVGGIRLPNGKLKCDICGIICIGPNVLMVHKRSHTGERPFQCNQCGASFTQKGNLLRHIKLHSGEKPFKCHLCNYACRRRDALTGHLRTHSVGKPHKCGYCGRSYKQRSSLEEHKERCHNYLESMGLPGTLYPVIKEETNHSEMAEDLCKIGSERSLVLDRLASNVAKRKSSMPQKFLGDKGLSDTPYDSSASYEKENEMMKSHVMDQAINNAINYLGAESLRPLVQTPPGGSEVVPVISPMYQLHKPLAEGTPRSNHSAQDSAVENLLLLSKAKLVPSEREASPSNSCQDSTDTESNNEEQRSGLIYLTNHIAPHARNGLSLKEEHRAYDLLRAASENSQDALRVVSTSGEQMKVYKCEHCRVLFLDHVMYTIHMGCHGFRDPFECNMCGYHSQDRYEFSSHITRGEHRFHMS
Sequence of IKZF1 (Ikaros), recombinant;c-JUN, recombinant;c-FOS, recombinant (P05412 whole entry, chain 2 of 3): as the sequence (P05412 whole entry, chain 1 of 2) above
Sequence of IKZF1 (Ikaros), recombinant;c-JUN, recombinant;c-FOS, recombinant (P01100 whole entry, chain 3 of 3): as the sequence (P01100 whole entry, chain 2 of 2) above

B1: IL10 CNS9 WT probe (dsDNA)
DNA 1: GAGGTTGCAGTTTCGTTGTGAGTCAGGCCTGCTGA
DNA 2: TCAGCAGGCCTGACTCACAACGAAACTGCAACCTC
**Q.** Which results are given for B1?
**A.** binding result [1]: binds; binding result [2]: binds
